# According to patent US9035023B2, “Bombesin analog peptide antagonist conjugates” (Piramal Imaging, SA, priority 2008, dated 2015):
# Assays:
# [1] = molecular target: T1, GRP receptor (Homo sapiens, UniProt P30550); assay: GRP receptor binding affinity by in vitro receptor autoradiography; design: host or cells: PC3 cells; conditions: read-out: BINDING IC50 (nM) mean ± SEM
# Procedure: The GRP receptor binding affinity of the various compounds was determined by in vitro receptor autoradiography on cryostat sections of either well characterized prostate carcinomas, or on sections from HEK-GRPR or PC3 cell pellets as described previously (Markwalder et al., Can. Res., 1999; 59, 1152-1159; Reubi et al., Eur. J. Nucl. Med., 2000; 27: 273-282; Reubi et al., Clin. Cancer Res. 2002; 8 1139-1146).
# [2] = molecular target: T1, GRP receptor; assay: Calcium release assay in PC3 cells (Fluo-4NW); type: cell-based; design: host or cells: PC3 cells
# Procedure: In brief, PC3 cells were seeded (10,000 cells per well) in 96 well plates and cultured for 2 day at 37° C. and 5% CO2 in culture medium. At the day of the experiment, the cells were washed with assay buffer (1×HBSS, 20 mM HEPES) containing 2.5 mM probenecid, and then loaded with 100 μL/well Fluo-4NW dye in assay buffer containing 2.5 mM probenecid for 30 min at 37° C. and 5% CO2 and then for further 30 min at room temperature. […] Intracellular calcium mobilization was recorded in a kinetic for 60 sec at room temperature monitoring fluorescence emission at 520 nm (with λex=485 nm) in the presence of the analogues at the concentrations indicated. […] Baseline (F-baseline) measurements were taken for dye-loaded, untreated cells. […] All experiments were repeated at least three times in triplicate.
# [3] = molecular target: T1, GRP receptor; assay: Immunofluorescence microscopy based internalization assay with HEK-GRPR cells; type: cell-based; design: expressed in transfected cells; host or cells: HEK293; conditions: for antagonism of bombesin-induced GRP receptor internalization: 10 nmol/L bombesin + 1 μmol/L analogue; for antagonism of bombesin-induced GRP receptor internalization / GRP receptor internalization, given alone: 30 min; for GRP receptor internalization, given alone: 1 μmol/L
# Procedure: Briefly, HEK-GRPR cells were grown on poly-D-lysine (20 μg/ml) (Sigma-Aldrich, St. Louis, Mo.) coated 35 mm four-well plates (Cellstar, Greiner Bio-One GmbH, Frickenhausen, Germany). […] The cells were imaged using a Leica DM RB immunofluorescence microscope and an Olympus DP10 camera.
# Following incubation with the peptides, the cells were processed for immunocytochemistry as described in above.
# [4] = test system: LNCaP tumor
# [5] = test system: PC-3 tumor
# [6] = test system: PC-3 tumor; assay: Biodistribution in PC-3 tumor bearing nude mice
# Procedure: Eleven days after inoculation the mice were injected into the tail vein with 10 pmol of radiolabeled peptides (about 0.18 MBq), diluted in NaCl (0.1% bovine serum albumin, pH 7.4, total injected volume=100 μL).
# [7] = molecular target: T1, GRP receptor; conditions: cited from earlier work
# [8] = 100 μg bombesin or non-radioactive Compound 2
# T1 sequence (P30550 whole entry): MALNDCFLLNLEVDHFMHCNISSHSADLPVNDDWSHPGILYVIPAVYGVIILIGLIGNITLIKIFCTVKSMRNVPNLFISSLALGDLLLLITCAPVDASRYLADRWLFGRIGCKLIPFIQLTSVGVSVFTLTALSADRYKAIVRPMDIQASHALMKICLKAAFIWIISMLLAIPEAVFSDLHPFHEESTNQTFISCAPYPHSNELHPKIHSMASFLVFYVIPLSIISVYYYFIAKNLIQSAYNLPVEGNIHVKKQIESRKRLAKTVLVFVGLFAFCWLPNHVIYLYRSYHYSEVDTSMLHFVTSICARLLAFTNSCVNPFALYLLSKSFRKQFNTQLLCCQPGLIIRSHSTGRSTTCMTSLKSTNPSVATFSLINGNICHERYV
compound,measurement,setting,value
"CC(C)C[C@H](NC(=O)C[C@H](O)[C@H](CC(C)C)NC(=O)[C@H](Cc1c[nH]cn1)NC(=O)CNC(=O)[C@@H](NC(=O)[C@H](C)NC(=O)[C@H](Cc1c[nH]c2ccccc12)NC(=O)[C@H](CCC(N)=O)NC(=O)[C@@H](Cc1ccccc1)NC(=O)c1ccc(NC(=O)CNC(=O)CN2CCN(CC(=O)O)CCN(CC(=O)O)CCN(CC(=O)O)CC2)cc1)C(C)C)C(N)=O [Compound 1, DOTA-Gly-aminobenzoyl-D-Phe-Gln-Trp-Ala-Val-Gly-His-Sta-Leu-NH2]",IC50,[1],30 ± 4.5 nM
same,"effect on calcium release, tested alone",[2]; 1 μmol/L and 10 μmol/L,no effect on calcium release
same,antagonism of bombesin-induced GRP receptor internalization,[3],efficiently antagonized
same,"GRP receptor internalization, given alone",[3],no effect on GRP receptor internalization
CC(C)C[C@H](NC(=O)C[C@H](O)[C@H](CC(C)C)NC(=O)[C@H](Cc1c[nH]cn1)NC(=O)CNC(=O)[C@@H](NC(=O)[C@H](C)NC(=O)[C@H](Cc1c[nH]c2ccccc12)NC(=O)[C@H](CCC(N)=O)NC(=O)[C@@H](Cc1ccccc1)NC(=O)c1ccc(NC(=O)CNC(=O)CN2CCN(CC(=O)O)CCN(CC(=O)O)CCN(CC(=O)O)CC2)cc1)C(C)C)C(N)=O [^115In-1],IC50,[1],16 ± 5.3 nM
same,Signaling Ca++ mobilization,[2],ANTAG/no agonist effect
same,Receptor internalization,[3]; HEK-GRPR cells,Antag/no agonist
"[D-Phe^6, Leu-NHEt^13, des-Met^14]-bombesin(6-14) [GRPR-ANTAG, reference compound]",antagonism of bombesin-induced GRP receptor internalization,[3],efficiently antagonized
same,"GRP receptor internalization, given alone",[3],no effect on GRP receptor internalization
^68Ga-DOTA-4-amino-1-carboxymethyl-piperidine-D-Phe-Gln-Trp-Ala-Val-Gly-His-Sta-Leu-NH2 [^68Ga-COMPOUND 2],blocking of tumor contrast,[4]; [8],effectively blocked
same,tumor contrast,[4]; 1 h after injection of 10 MBq,High tumor-contrast
same,blocking of tumor contrast,[5]; [8],effectively blocked
same,tumor contrast,[5]; 1 h after injection of 10 MBq,High tumor-contrast
"^111In-DOTA-(15-amino-4,7,10,13-tetraoxapentadecanoic acid)-(4-amino-1-carboxy-methyl-piperidine)-D-Phe-Gln-Trp-Ala-Val-Gly-His-Sta-Leu-NH2 [^111In-Compound 5]","biodistribution, adrenal",[6]; 1 h,3.63 ± 0.53
same,"biodistribution, blood",[6]; 1 h,0.75 ± 0.21
same,"biodistribution, bone",[6]; 1 h,0.34 ± 0.04
same,"biodistribution, heart",[6]; 1 h,0.28 ± 0.06
same,"biodistribution, intestine",[6]; 1 h,2.39 ± 0.42
same,"biodistribution, kidney",[6]; 1 h,5.08 ± 0.72
same,"biodistribution, liver",[6]; 1 h,0.40 ± 0.09
same,"biodistribution, lung",[6]; 1 h,0.62 ± 0.15
same,"biodistribution, muscle",[6]; 1 h,0.19 ± 0.07
same,"biodistribution, pancreas",[6]; 1 h,26.83 ± 4.34
same,"biodistribution, pituitary",[6]; 1 h,9.02 ± 0.99
same,"biodistribution, spleen",[6]; 1 h,0.80 ± 0.28
same,"biodistribution, stomach",[6]; 1 h,3.92 ± 1.26
same,"biodistribution, tumor",[6]; 1 h,10.27 ± 0.36
same,tumor:blood,[6]; 1 h,13.73
same,tumor:bone,[6]; 1 h,29.93
same,tumor:kidney,[6]; 1 h,2.02
same,tumor:muscle,[6]; 1 h,53.65
same,tumor:pancreas,[6]; 1 h,0.38
same,"biodistribution, adrenal",[6]; 4 h,0.68 ± 0.31
same,"biodistribution, blood",[6]; 4 h,0.03 ± 0.01
same,"biodistribution, bone",[6]; 4 h,0.08 ± 0.02
same,"biodistribution, heart",[6]; 4 h,0.03 ± 0.01
same,"biodistribution, intestine",[6]; 4 h,0.17 ± 0.10
same,"biodistribution, kidney",[6]; 4 h,2.04 ± 0.15
same,"biodistribution, liver",[6]; 4 h,0.15 ± 0.05
same,"biodistribution, lung",[6]; 4 h,0.15 ± 0.19
same,"biodistribution, muscle",[6]; 4 h,0.02 ± 0.00
same,"biodistribution, pancreas",[6]; 4 h,1.36 ± 0.81
same,"biodistribution, pituitary",[6]; 4 h,0.38 ± 0.16
same,"biodistribution, spleen",[6]; 4 h,0.09 ± 0.03
same,"biodistribution, stomach",[6]; 4 h,0.87 ± 0.58
same,"biodistribution, tumor",[6]; 4 h,9.35 ± 0.73
same,tumor:blood,[6]; 4 h,319.66
same,tumor:bone,[6]; 4 h,124.55
same,tumor:kidney,[6]; 4 h,4.59
same,tumor:muscle,[6]; 4 h,475.17
same,tumor:pancreas,[6]; 4 h,6.90
same,"biodistribution, adrenal","[6]; 4 h blocking, 2000 fold",0.07 ± 0.02
same,"biodistribution, blood","[6]; 4 h blocking, 2000 fold",0.02 ± 0.00
same,"biodistribution, bone","[6]; 4 h blocking, 2000 fold",0.03 ± 0.03
same,"biodistribution, heart","[6]; 4 h blocking, 2000 fold",0.02 ± 0.00
same,"biodistribution, intestine","[6]; 4 h blocking, 2000 fold",0.03 ± 0.01
same,"biodistribution, kidney","[6]; 4 h blocking, 2000 fold",1.76 ± 0.36
same,"biodistribution, liver","[6]; 4 h blocking, 2000 fold",0.14 ± 0.01
same,"biodistribution, lung","[6]; 4 h blocking, 2000 fold",0.05 ± 0.01
same,"biodistribution, muscle","[6]; 4 h blocking, 2000 fold",0.01 ± 0.00
same,"biodistribution, pancreas","[6]; 4 h blocking, 2000 fold",0.06 ± 0.02
same,"biodistribution, pituitary","[6]; 4 h blocking, 2000 fold",0.23 ± 0.14
same,"biodistribution, spleen","[6]; 4 h blocking, 2000 fold",0.06 ± 0.01
same,"biodistribution, stomach","[6]; 4 h blocking, 2000 fold",0.06 ± 0.01
same,"biodistribution, tumor","[6]; 4 h blocking, 2000 fold",0.61 ± 0.07
same,"biodistribution, adrenal",[6]; 24 h,0.62 ± 0.16
same,"biodistribution, blood",[6]; 24 h,0.01 ± 0.00
same,"biodistribution, bone",[6]; 24 h,0.08 ± 0.02
same,"biodistribution, heart",[6]; 24 h,0.02 ± 0.00
same,"biodistribution, intestine",[6]; 24 h,0.05 ± 0.02
same,"biodistribution, kidney",[6]; 24 h,1.37 ± 0.22
same,"biodistribution, liver",[6]; 24 h,0.11 ± 0.02
same,"biodistribution, lung",[6]; 24 h,0.51 ± 0.73
same,"biodistribution, muscle",[6]; 24 h,0.02 ± 0.00
same,"biodistribution, pancreas",[6]; 24 h,0.33 ± 0.05
same,"biodistribution, pituitary",[6]; 24 h,0.46 ± 0.52
same,"biodistribution, spleen",[6]; 24 h,0.07 ± 0.01
same,"biodistribution, stomach",[6]; 24 h,0.05 ± 0.01
same,"biodistribution, tumor",[6]; 24 h,6.33 ± 0.76
same,tumor:blood,[6]; 24 h,1155.51
same,tumor:bone,[6]; 24 h,76.65
same,tumor:kidney,[6]; 24 h,4.62
same,tumor:muscle,[6]; 24 h,364.92
same,tumor:pancreas,[6]; 24 h,19.16
^177Lu-DOTA-Gly-4-aminobenzoyl-Gln-Trp-Ala-Val-Gly-His-Leu-Met-NH2 [Compound L70],agonist/antagonist behaviour,[7],behaved as an agonist
